Test system: T1, fluorogenic substrate (R&D systems, cat no ES007), peptide YVADAPK between a 7-methoxycoumarin (Mca) group and a 2,4-dinitrophenyl (Dnp) group
T1 sequence: YVADAPK

In the case of “commercial ACE-2 from Sino Biological (cat no 10108H08H20)”, the “enzymatic activity assay using a fluorogenic substrate” value was “All four samples appeared to have similar levels of activity”.

Source: patent publication US20220280633A1
